The target in one data set is T1, Rap1-DBD (Saccharomyces cerevisiae, UniProt P11938 358-601).
T1 sequence: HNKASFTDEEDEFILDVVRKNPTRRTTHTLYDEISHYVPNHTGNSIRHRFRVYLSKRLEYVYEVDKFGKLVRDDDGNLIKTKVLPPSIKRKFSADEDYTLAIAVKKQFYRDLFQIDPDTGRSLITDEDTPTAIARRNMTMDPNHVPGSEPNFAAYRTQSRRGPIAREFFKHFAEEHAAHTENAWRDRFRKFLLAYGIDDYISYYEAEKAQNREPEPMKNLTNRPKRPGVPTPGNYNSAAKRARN
Kind of data set: EMSA. In general terms: Mobility shift assays separate free from complexed probe on a gel.

The next data set addresses T2, Rap1-DBD P520L (Saccharomyces cerevisiae, UniProt P11938 358-601, P520L).
T2 sequence: T1 sequence with P163L
Description: EMSA.

One molecule from paper PMC7049697 can be followed below.

Numbering of substitutions follows the chain as printed.

B1: 21 bp telomeric Rap1 site dsDNA (dsDNA)
DNA 1: CCGCACACCCACACACCAGTG
DNA 2: CACTGGTGTGTGGGTGTGCGG
Consider B1, for which the binding result in the data set with Rap1-DBD and in the data set with Rap1-DBD P520L was “binds” in each case.
